Results as given in patent US9637768B2, “Method for preparing sialic acid derivative” (priority 2013, dated 2017).

Assays:
[1] = test system: Photobacterium damselae α-2,6-sialyltransferase (α2,6PdST), all mutants of Table 3 (I411T, L433S, L433T, I411T/L433S, I411T/L433T); experiment: kinetic parameters for α-2,6-sialyltransferase, all mutants (summary); type: biochemical; conditions: all mutants vs wild type
Description: The kinetic parameters, kcat and Km, were obtained from nonlinear regression analysis of Michaelis-Menten equation using Sigma Plot (SigmaPlot) program.
In order to appreciate the effect of each mutation on the donor substrate and the acceptor substrate, kinetic parameters for a single amino acid substitution mutant and a combinatorial mutant were measured.

[2] = test system: CC(=O)N[C@H]1[C@H]([C@H](O)[C@H](O)CO)O[C@](OP(=O)(O)OC[C@H]2O[C@@H](n3ccc(N)nc3=O)[C@H](O)[C@@H]2O)(C(=O)O)C[C@@H]1O; experiment: purified protein, by the assay type; conditions: other: room temperature, substrate 0.1 to 30 mM
α-2,6-sialyltransferase = test system: α-2,6-sialyltransferase
Excerpt: The entire vector was subjected to PCR using a primer into which NNK sequence (a sequence where N is A, C, G or T, K is G or T) is introduced, the NNK sequence obtained by randomly replacing ATT and CTG sequences corresponding to amino acid positions 411 and 433 of α-2,6-sialyltransferase, thereby constructing a library. In α-2,6-sialyltransferase of the present invention, methionine is the first amino acid when counting from the first methionine sequence. In order to remove the original plasmid, the amplified gene of the sialyltransferase including the vector sequence was treated with Dpn enzyme and transformed into E. coli DH5a. Mutant genes were extracted from all of generated colonies and transformed into E. coli BW25113 (DE3). The transformed individual colonies were inoculated in the LB medium (500 μL) containing ampicillin in 96 well and shake-cultured at 30 to 37° C. for 18 to 24 hours, and then some of the culture liquid was inoculated in new LB medium (500 μL) containing 100 μg mL^−1 ampicillin and IPTG and cultured at 18 to 30° C. for 18 to 40 hours. […]
The wild type strain and mutants of sialyltransferase transformed into E. coli BW25113 (DE3) were expressed using the inducer IPTG in a culture volume of 50 mL, and purified to obtain only pure protein using Ni-NTA column, and specific activity and kinetic parameters were measured.

Molecule: OC[C@H]1O[C@@H](O[C@H]2[C@H](O)[C@@H](O)C(O)O[C@@H]2CO)[C@H](O)[C@@H](O)[C@H]1O (stereo partly drawn) [Lac, lactose]
- binding force with the acceptor substrate [1]: reduced

Molecule: Pasteurella multocida (ATCC15742) α-2,3-sialyltransferase (α2,3PST), wild type, SEQ ID NO: 1 (Pasteurella multocida)
- Km ([2]; wild type): 1830 µM

Molecule: Pasteurella multocida α-2,3-sialyltransferase (α2,3PST) variant R313H (= R289H of SEQ ID NO: 1), SEQ ID NO: 3 (Pasteurella multocida; R313H)
- Km ([2]; R313H): 3240 µM

Molecule: Pasteurella multocida α-2,3-sialyltransferase (α2,3PST) variant R313H/T265S (= R289H/T241S of SEQ ID NO: 1), SEQ ID NO: 6 (Pasteurella multocida; R313H/T265S)
- Km ([2]; R313H/T265S): 3940 µM

Molecule: Pasteurella multocida α-2,3-sialyltransferase (α2,3PST) variant R313N (= R289N of SEQ ID NO: 1), SEQ ID NO: 2 (Pasteurella multocida; R313N)
- Km ([2]; R313N): 2510 µM

Molecule: Pasteurella multocida α-2,3-sialyltransferase (α2,3PST) variant R313N/T265S (= R289N/T241S of SEQ ID NO: 1), SEQ ID NO: 5 (Pasteurella multocida; R313N/T265S)
- Km ([2]; R313N/T265S): 3330 µM

Molecule: Pasteurella multocida α-2,3-sialyltransferase (α2,3PST) variant T265S (= T241S of SEQ ID NO: 1), SEQ ID NO: 4 (Pasteurella multocida; T265S)
- Km ([2]; T265S): 2230 µM

B1: L433T (protein)
chain: MCNSDNTSLKETVSSNSADVVETETYQLTPIDAPSSFLSHSWEQTCGTPILNESDKQAISFDFVAPELKQDEKYCFTFKGITGDHRYITNTTLTVVAPTLEVYIDHASLPSLQQLIHIIQAKDEYPSNQRFVSWKRVTVDADNANKLNIHTYPLKGNNTSPEMVAAIDEYAQSKNRLNIEFYTNTAHVFNNLPPIIQPLYNNEKVKISHISLYDDGSSEYVSLYQWKDTPNKIETLEGEVSLLANYLAGTSPDAPKGMGNRYNWHKLYDTDYYFLREDYLDVEANLHDLRDYLGSSAKQMPWDEFAKLSDSQQTLFLDIVGFDKEQLQQQYSQSPLPNFIFTGTTTWAGGETKEYYAQQQVNVINNAINETSPYYLGKDYDLFFKGHPAGGVINDIILGSFPDMINIPAKISFEVLMMTDMLPDTVAGIASSTYFTIPADKVNFIVFTSSDTITDREEALKSPLVQVMLTLGIVKEKDVLFWA
modifications: L433T
- activity increase compared to the wild type strain (α-2,6-sialyltransferase; mutant search by colorimetry): 3 times
- Rel. Specific Ac (%) (α-2,6-sialyltransferase; α2,6PdST, relative to wild type, purified protein, CMP-N-acetylneuraminic acid and lactose): 296%
